US10077295B2, “Glycoproteins having lipid mobilizing properties and therapeutic uses thereof” (Aston University, priority 2010, dated 2018)
Marks after values point to notes of the source that are not given here.

How the values were obtained:
[1] = tested on: male Wistar rats; assay: mature male Wistar rats, daily i.v. ZAG for 10 days: body weight, body composition, plasma metabolites; type: in vivo, rat
Description: Animal—Rats. Mature male Wistar rats (one year old from our own colony) weighing 540±82.5 g were housed individually and treated once daily i.v., with either ZAG in PBS (100 μl) (50 μg per 100 g body weight), or with PBS (100 μl) as a control. Both food and water intake and body weight were measured daily. Animals were given free access to food (Special Diet Services, Essex, UK) and water ad libitum. The animal experiment was carried out under the welfare conditions imposed by the British Home Office. After 10 days treatment the animals were terminated and the body composition determined. Animals were heated to 80-90° C. for 7 days until constant weight was achieved. The water content was then determined from the difference between the wet and dry weight. Lipids were extracted from the dry carcass using a sequence of chloroform:methanol (1:1), ethanol/acetone (1:1) and diethyl ether (120 ml of each) as described by Lundholm et al (14). The solvents were evaporated and the fat weighed. The non-fat carcass mass was calculated as the difference between the initial weight of the carcass and the weight of water and fat.
Serum Metabolite Determinations. Non-esterified fatty acids (NEFA) were determined using a Wako-ASC-ACOD kit (Wako Chemical GmbH, Neuss, Germany). Triglycerides were determined using a Triglyceride kit (Sigma Chemical Co., Poole, United Kingdom) and 3-hydroxybutyrate by a quantitative enzymatic determination kit (Sigma). Glucose was measured using a glucose analyser (Beckman, Irvine, Calif.) and glycerol was determined enzymatically using the method of Wieland as described in “Methods of Enzymatic Analysis” (Ed. Bergmeyer, H. U.) Vol. 3, pp1404-1409, published by Academic Press, London (1974).

[2] = tested on: murine epididymal adipocytes; assay: Lipolytic assay (glycerol release) in murine adipocytes; type: cell-based, mouse
Description: Cell Culture and Purification of ZAG. Single-cell suspensions of white adipocytes were prepared from minced adipose deposits by incubation at 37° C. for 2 h in Krebs-Ringer biocarbonate buffer containing 1.5 mgml^−1 collagenase, and 4% bovine serum albumin under an atmosphere of 95% oxygen: 5% CO2 as previously described. For time-course studies adipocytes were suspended in DMEM containing 10% fetal calf serum at a concentration of 10^5 cells ml^−1 and maintained under an atmosphere of 10% CO2 in air at 37° C. Human 293 cells transfected with a plasmid containing human ZAG were seeded at a concentration of 10^5 cells ml^−1 in FreeStyle medium and maintained under an atmosphere of 5% CO2 in air at 37° C. Maximal protein levels (16 μgml^−1) were obtained after 14 days of culture. The media (200 ml) was then centrifuged at 700 g for 15 min to remove cells and concentrated into a volume of 1 ml of sterile PBS using an Amicon Ultra-15 centrifugal filter with a 10 kDa cut-off After measurement of the protein concentration of the sample (about 2 mg) it was added to 2 g DEAE cellulose suspended in 20 ml of 10 mM Tris, pH8.8 and stirred at 4° C. for 2 h. ZAG being negatively charged binds to the DEAE cellulose, which was sedimented by centrifugation (1500 g for 15 min), and eluted by stirring with 20 ml 10 mM Tris, pH8.8 containing 0.3M NaCl for 30 min at 4° C. The supernatant was washed and concentrated to a volume of 1 ml in sterile PBS using the Amicon centrifugal filter.
Lipolytic assay. Samples to be assayed were incubated with 10^5 to 2×10^5 adipocytes for 2 h in 1 ml Krebs-Ringer bicarbonate buffer, pH 7.2. The concentration of glycerol released was determined enzymatically by the method of Wieland (Wieland, O. Glycerol UV method. In Methods of Enzymatic Analysis (ed. Bergmeyer, H.U.) (Academic Press, London, UK, pp 1404-1409, 1974)). Control samples containing adipocytes alone were analysed to determine the spontaneous glycerol release. Activity was expressed as μmol glycerol released/10^5 adipocytes/2 h.

[3] = tested on: murine myotubes; assay: Murine myotubes subjected to high glucose: protein degradation, protein synthesis, ROS, pPKR; type: cell-based, mouse
Description: This utilizes murine myotubes subjected to high concentrations of glucose (10 or 25 mM). […] However the SR compound (i.e., SR59230A) can also act as a β-agonist, which it seemed to do in these experiments.
It has been shown that formation of reactive oxygen species (ROS) is important in protein degradation induced by high glucose load. […] High glucose also induces activation (phosphorylation) of PKR (FIG. 22A) and the subsequent phosphorylation of eIF2α (FIG. 22B) as is seen in skeletal muscle of ob/ob mice, which was also attenuated by ZAG.

[4] = tested on: ob/ob mice; assay: Interval / long-term administration of ZAG in ob/ob mice (pilot study); type: in vivo, mouse
Description: While not wanting to be limited by theory, it may be that the subjects are receiving too much ZAG or that there is receptor desensitization as is seen with TNF. A pilot study was performed with 2 mice in each group to determine optimal scheduling of ZAG delivery.

[5] = 10 or 25 mM glucose, ZAG 25 μg/ml

B1: ZAG: recombinant full length human zinc-α2-glycoprotein (SEQ ID NO: 1) secreted by transfected HEK293F cells; lipid mobilizing factor (protein, listed as Homo sapiens)
chain: QENQDGRYSLTYIYTGLSKHVEDVPAFQALGSLNDLQFFRYNSKDRKSQPMGLWRQVEGMEDWKEDSQLQKAREDMETLKDIVEYYNDSNGSHVLQGRFGCEIENNRSSGAFWKYYYDGKDYIEFNKEIPAWVPFDPAAQITKQKWEAEPVYVQRAKAYLEEECPATLRKYLKYSKNILDRQDPPSVVVTSHQAPGEKKKLKCLAYDFYPGKIDVHWTRAGQVQEPELRGDVLHNGNGTYQSWVVVAVPPQDTAPYSCHVQHSSLAQPLVVPWEAS
With B1 the “time to significant elevation in body temperature” value ([1]; after the first administration) was ≤ 24 h, the Final weight ([1]; male rats, after 10 days) was 525 ± 1 g and the Weight change ([1]; male rats, after 10 days) was -5 ± 1 g. The “elevation in body temperature” value ([1]; rats) was 0.4 °C, the “Glucose (plasma)” value ([1]; rats treated for 10 days) was 16.2 ± 2.1^c mmol/l and the “Glycerol (plasma)” value ([1]; rats treated for 10 days) was 450 ± 51^c umol/l. The “NEFA (plasma)” value ([1]; rats treated for 10 days) was 0.26 ± 0.06^b mEq/l, the “Trigylcerides (plasma)” value ([1]; rats treated for 10 days) was 1.1 ± 0.09^a mmol/l and the “decrease in plasma levels of NEFA” value ([1]; rats, 10 days) was 55%. For the same molecule, the “increase in plasma glycerol concentration” value ([1]; rats, 10 days) was 50%, the “reduction of plasma levels of glucose and triglycerides” value ([1]; rats, 10 days) was 36-37% and the “decrease in body weight” value ([1]; rats, after 10 days, 50 μg/100 g b.w. i.v. daily) was 5 g. For the same molecule, the “lipolytic effect in adipocytes from subcutaneous and visceral deposits” value ([2]; compared with epididymal adipocytes) was “considerably reduced”, the “lipolysis in epididymal adipocytes” value ([2]; mouse adipocytes) was “stimulated lipolysis” and the “effect of a single freezing and thawing cycle on lipolytic activity” value ([2]; murine epididymal adipocytes) was “destroyed”. The “potency at inducing lipolysis compared with isoprenaline” value ([2]; on a molar basis) was “more potent at inducing lipolysis than isoprenaline on a molar basis”, the “effect on depression of protein synthesis by high glucose” value [3, 5] was “completely attenuated” and the “effect on protein degradation stimulated by high glucose” value [3, 5] was “completely attenuated”. For the same molecule, the “effect on glucose-induced phosphorylation of PKR and eIF2α” value ([3]; myotubes) was “attenuated”, the “effect on increase in ROS produced by glucose” value ([3]; myotubes) was “completely attenuates” and the weight loss ([4]; from a 90 g mouse, in about 3 weeks) was 8 to 10 g. The “outcome of long-term daily administration” value ([4]; ob/ob mice) was “cessation of weight loss”.
